In the supplement of paper PMC5998384:

Assays:
HeLa Kyoto [1] = experiment: solubility in G1/S (NP-40 vs SDS abundance) (log2 ratio); higher = more soluble; details: cell cycle stage: G1/S
HeLa Kyoto [2] = experiment: melting temperature (median over replicates), in situ; higher = more thermally stable
HeLa Kyoto [3] = experiment: solubility change mitosis vs G1/S (difference of NP-40 vs SDS log2 ratios) (log2 ratio difference); higher = more soluble in mitosis
HeLa Kyoto [4] = experiment: thermal stability score vs G1/S (z-score of summed log2 fold changes over temperatures); higher = more thermally stable than in G1/S
[5] = cell cycle stage: early G1 (4.5 h after nocodazole release)
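Throughout, for melting temperature (median over replicates), in situ: HeLa Kyoto cells synchronized by double thymidine or nocodazole block, proteins quantified by TMT10plex mass spectrometry, three independent biological replicates.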
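Throughout, for solubility change mitosis vs G1/S (difference of NP-40 vs SDS log2 ratios): synchronized HeLa Kyoto cells (double thymidine block for G1/S, nocodazole release for mitosis), protein amounts in NP-40 versus SDS lysates quantified by mass spectrometry, three biological replicates.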
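Throughout, for solubility in G1/S (NP-40 vs SDS abundance): HeLa Kyoto cells arrested at G1/S by double thymidine block, proteins quantified by TMT10plex mass spectrometry in mild NP-40 versus SDS extracts, three biological replicates.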
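Throughout, for thermal stability score vs G1/S (z-score of summed log2 fold changes over temperatures): synchronized HeLa Kyoto cells, proteins quantified by TMT10plex mass spectrometry, three biological replicates, mitosis taken 0.5 h after nocodazole release, G1/S directly after double thymidine block.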

Substance	solubility in G1/S (log2) (HeLa Kyoto [1])	melting temperature (HeLa Kyoto [2]; cell cycle stage: G1/S) [°C]	melting temperature (HeLa Kyoto [2]; cell cycle stage: mitosis) [°C]	solubility change mitosis (log2) (HeLa Kyoto [3])	thermal stability score (HeLa Kyoto [4]; [5])	thermal stability score (HeLa Kyoto [4]; cell cycle stage: mitosis)
MSLLGDPLQALPPSAAPTGPLLAPPAGATLNRLREPLLRRLSELLDQAPEGRGWRRLAELAGSRGRLRLSCLDLEQCSLKVLEPEGSPSLCLLKLMGEKGCTVTELSDFLQAMEHTEVLQLLSPPGIKITVNPESKAVLAGQFVKLCCRATGHPFVQYQWFKMNKEIPNGNTSELIFNAVHVKDAGFYVCRVNNNFTFEFSQWSQLDVCDIPESFQRSVDGVSESKLQICVEPTSQKLMPGSTLVLQCVAVGSPIPHYQWFKNELPLTHETKKLYMVPYVDLEHQGTYWCHVYNDRDSQDSKKVEIIIGRTDEAVECTEDELNNLGHPDNKEQTTDQPLAKDKVALLIGNMNYREHPKLKAPLVDVYELTNLLRQLDFKVVSLLDLTEYEMRNAVDEFLLLLDKGVYGLLYYAGHGYENFGNSFMVPVDAPNPYRSENCLCVQNILKLMQEKETGLNVFLLDMCRKRNDYDDTIPILDALKVTANIVFGYATCQGAEAFEIQHSGLANGIFMKFLKDRLLEDKKITVLLDEVAEDMGKCHLTKGKQALEIRSSLSEKRALTDPIQGTEYSAESLVRNLQWAKAHELPESMCLKFDCGVQIQLGFAAEFSNVMIIYTSIVYKPPEIIMCDAYVTDFPLDLDIDPKDANKGTPEETGSYLVSKDLPKHCLYTRLSSLQKLKEHLVFTVCLSYQYSGLEDTVEDKQEVNVGKPLIAKLDMHRGLGRKTCFQTCLMSNGPYQSSAATSGGAGHYHSLQDPFHGVYHSHPGNPSNVTPADSCHCSRTPDAFISSFAHHASCHFSRSNVPVETTDEIPFSFSDRLRISEK [MALT1]	-0.00137	49	49.4	-0.158	0.111	0.543
MAVELGVLLVRPRPGTGLGRVMRTLLLVLWLATRGSALYFHIGETEKKCFIEEIPDETMVIGNYRTQLYDKQREEYQPATPGLGMFVEVKDPEDKVILARQYGSEGRFTFTSHTPGEHQICLHSNSTKFSLFAGGMLRVHLDIQVGEHANDYAEIAAKDKLSELQLRVRQLVEQVEQIQKEQNYQRWREERFRQTSESTNQRVLWWSILQTLILVAIGVWQMRHLKSFFEAKKLV [TMED9]	0.375	55.7	56.7	0.0692	1.59	1.3
MMKFRFRRQGADPQREKLKQELFAFNKTVEHGFPNQPSALAFDPELRIMAIGTRSGAVKIYGAPGVEFTGLHRDAATVTQMHFLTGQGRLLSLLDDSSLHLWEIVHHNGCAHLEEALSFQLPSRPGFDGASAPLSLTRVTVVLLVAASDIAALGTEGSSVFFLDVTTLTLLEGQTLAPGEVLRSVPDDYRCGKALGPVESLQGHLRDPTKILIGYSRGLLVIWNQASQCVDHIFLGNQQLESLCWGRDSSTVVSSHSDGSYAVWSVDAGSFPTLQPTVATTPYGPFPCKAINKILWRNCESGGHFIIFSGGMPRASYGDRHCVSVLRAETLVTLDFTSRIIDFFTVHSTRPEDEFDDPQALAVLLEEELVVLDLQTPGWPAVPAPYLAPLHSSAITCSAHVASVPAKLWARIVSAGEQQSPQPVSSALSWPITGGRNLAQEPSQRGLLLTGHEDGTVRFWDASGVALRPLYKLSTAGLFQTDCEHADSLAQAAEDDWPPFRKVGCFDPYSDDPRLGVQKVALCKYTAQMVVAGTAGQVLVLELSDVPVEQAVSVAIIDLLQDREGFTWKGHERLSPRTGPLPWPAGFQPRVLVQCLPPAAVTAVTLHTEWSLVAFGTSHGFGLFDYQRKSPVLARCTLHPNDSLAMEGPLSRVKSLKKSLRQSFRRIRKSRVSGKKRAANASSKLQEANAQLAEQACPHDVEMTPVQRRIEPRSADDSLSGVVRCLYFADTFLRDGAHHGPTMWAGTNSGSVFAYALEVPAAAVGGEKRPEQAVEAVLGKEVQLMHRAPVVAIAVLDGRGRPLPEPYEASRDLAQAPDMQGGHAVLIASEEQFKVFTLPKVSAKTKFKLTAHEGCRVRKVALATFASVACEDYAETCLACLTNLGDVHVFSVPGLRPQVHYSCIRKEDISGIASCVFTRHGQGFYLISPSEFERFSLSARNITEPLCSLDINWPRDATQASYRIRESPKLSQANGTPSILLAPQSLDGSPDPAHSMGPDTPEPPEAALSPMSIDSATSADTTLDTTGDVTVEDVKDFLGSSEESEKNLRNLAEDEAHACAILIK [LLGL1]	0.0124	50.9	49.7	-0.209	-0.436	-0.753
MAWTKYQLFLAGLMLVTGSINTLSAKWADNFMAEGCGGSKEHSFQHPFLQAVGMFLGEFSCLAAFYLLRCRAAGQSDSSVDPQQPFNPLLFLPPALCDMTGTSLMYVALNMTSASSFQMLRGAVIIFTGLFSVAFLGRRLVLSQWLGILATIAGLVVVGLADLLSKHDSQHKLSEVITGDLLIIMAQIIVAIQMVLEEKFVYKHNVHPLRAVGTEGLFGFVILSLLLVPMYYIPAGSFSGNPRGTLEDALDAFCQVGQQPLIAVALLGNISSIAFFNFAGISVTKELSATTRMVLDSLRTVVIWALSLALGWEAFHALQILGFLILLIGTALYNGLHRPLLGRLSRGRPLAEESEQERLLGGTRTPINDAS [SLC35F6]	-0.144	60.1	56	-0.0109	-2.27	-5.04
MGKGDPNKPRGKMSSYAFFVQTCREEHKKKHPDSSVNFAEFSKKCSERWKTMSAKEKSKFEDMAKSDKARYDREMKNYVPPKGDKKGKKKDPNAPKRPPSAFFLFCSEHRPKIKSEHPGLSIGDTAKKLGEMWSEQSAKDKQPYEQKAAKLKEKYEKDIAAYRAKGKSEAGKKGPGRPTGSKKKNEPEDEEEEEEEEDEDEEEEDEDEE [HMGB2]	0.485	58.1	56.7	0.338	0.292	-0.27
MASATAAAARRGLGRALPLFWRGYQTERGVYGYRPRKPESREPQGALERPPVDHGLARLVTVYCEHGHKAAKINPLFTGQALLENVPEIQALVQTLQGPFHTAGLLNMGKEEASLEEVLVYLNQIYCGQISIETSQLQSQDEKDWFAKRFEELQKETFTTEERKHLSKLMLESQEFDHFLATKFSTVKRYGGEGAESMMGFFHELLKMSAYSGITDVIIGMPHRGRLNLLTGLLQFPPELMFRKMRGLSEFPENFSATGDVLSHLTSSVDLYFGAHHPLHVTMLPNPSHLEAVNPVAVGKTRGRQQSRQDGDYSPDNSAQPGDRVICLQVHGDASFCGQGIVPETFTLSNLPHFRIGGSVHLIVNNQLGYTTPAERGRSSLYCSDIGKLVGCAIIHVNGDSPEEVVRATRLAFEYQRQFRKDVIIDLLCYRQWGHNELDEPFYTNPIMYKIIRARKSIPDTYAEHLIAGGLMTQEEVSEIKSSYYAKLNDHLNNMAHYRPPALNLQAHWQGLAQPEAQITTWSTGVPLDLLRFVGMKSVEVPRELQMHSHLLKTHVQSRMEKMMDGIKLDWATAEALALGSLLAQGFNVRLSGQDVGRGTFSQRHAIVVCQETDDTYIPLNHMDPNQKGFLEVSNSPLSEEAVLGFEYGMSIESPKLLPLWEAQFGDFFNGAQIIFDTFISGGEAKWLLQSGIVILLPHGYDGAGPDHSSCRIERFLQMCDSAEEGVDGDTVNMFVVHPTTPAQYFHLLRRQMVRNFRKPLIVASPKMLLRLPAAVSTLQEMAPGTTFNPVIGDSSVDPKKVKTLVFCSGKHFYSLVKQRESLGAKKHDFAIIRVEELCPFPLDSLQQEMSKYKHVKDHIWSQEEPQNMGPWSFVSPRFEKQLACKLRLVGRPPLPVPAVGIGTVHLHQHEDILAKTFA [DHTKD1]	-0.0401	51.2	51.4	-0.0218	-0.797	-0.271
MAASSISSPWGKHVFKAILMVLVALILLHSALAQSRRDFAPPGQQKREAPVDVLTQIGRSVRGTLDAWIGPETMHLVSESSSQVLWAISSAISVAFFALSGIAAQLLNALGLAGDYLAQGLKLSPGQVQTFLLWGAGALVVYWLLSLLLGLVLALLGRILWGLKLVIFLAGFVALMRSVPDPSTRALLLLALLILYALLSRLTGSRASGAQLEAKVRGLERQVEELRWRQRRAAKGARSVEEE [TMEM109]	-0.0444	54.6	53.8	-0.14	-3.9	-4.03
ERP29	0.456	54.6	55.7	0.169	2.19	-0.433
MDDIFTQCREGNAVAVRLWLDNTENDLNQGDDHGFSPLHWACREGRSAVVEMLIMRGARINVMNRGDDTPLHLAASHGHRDIVQKLLQYKADINAVNEHGNVPLHYACFWGQDQVAEDLVANGALVSICNKYGEMPVDKAKAPLRELLRERAEKMGQNLNRIPYKDTFWKGTTRTRPRNGTLNKHSGIDFKQLNFLTKLNENHSGELWKGRWQGNDIVVKVLKVRDWSTRKSRDFNEECPRLRIFSHPNVLPVLGACQSPPAPHPTLITHWMPYGSLYNVLHEGTNFVVDQSQAVKFALDMARGMAFLHTLEPLIPRHALNSRSVMIDEDMTARISMADVKFSFQCPGRMYAPAWVAPEALQKKPEDTNRRSADMWSFAVLLWELVTREVPFADLSNMEIGMKVALEGLRPTIPPGISPHVCKLMKICMNEDPAKRPKFDMIVPILEKMQDK [ILK]	0.274	50.1	50	-0.135	1.36	1.76
MAALMTPGTGAPPAPGDFSGEGSQGLPDPSPEPKQLPELIRMKRDGGRLSEADIRGFVAAVVNGSAQGAQIGAMLMAIRLRGMDLEETSVLTQALAQSGQQLEWPEAWRQQLVDKHSTGGVGDKVSLVLAPALAACGCKVPMISGRGLGHTGGTLDKLESIPGFNVIQSPEQMQVLLDQAGCCIVGQSEQLVPADGILYAARDVTATVDSLPLITASILSKKLVEGLSALVVDVKFGGAAVFPNQEQARELAKTLVGVGASLGLRVAAALTAMDKPLGRCVGHALEVEEALLCMDGAGPPDLRDLVTTLGGALLWLSGHAGTQAQGAARVAAALDDGSALGRFERMLAAQGVDPGLARALCSGSPAERRQLLPRAREQEELLAPADGTVELVRALPLALVLHELGAGRSRAGEPLRLGVGAELLVDVGQRLRRGTPWLRVHRDGPALSGPQSRALQEALVLSDRAPFAAPSPFAELVLPPQQ [TYMP]	0.479	55.7	57.5	-0.0175	-1.38	-0.967
MDGSGPFSCPICLEPLREPVTLPCGHNFCLACLGALWPHRGASGAGGPGGAARCPLCQEPFPDGLQLRKNHTLSELLQLRQGSGPGSGPGPAPALAPEPSAPSALPSVPEPSAPCAPEPWPAGEEPVRCDACPEGAALPAALSCLSCLASFCPAHLGPHERSPALRGHRLVPPLRRLEESLCPRHLRPLERYCRAERVCLCEACAAQEHRGHELVPLEQERALQEAEQSKVLSAVEDRMDELGAGIAQSRRTVALIKSAAVAERERVSRLFADAAAALQGFQTQVLGFIEEGEAAMLGRSQGDLRRQEEQRSRLSRARQNLSQVPEADSVSFLQELLALRLALEDGCGPGPGPPRELSFTKSSQAVRAVRDMLAVACVNQWEQLRGPGGNEDGPQKLDSEADAEPQDLESTNLLESEAPRDYFLKFAYIVDLDSDTADKFLQLFGTKGVKRVLCPINYPLSPTRFTHCEQVLGEGALDRGTYYWEVEIIEGWVSMGVMAEDFSPQEPYDRGRLGRNAHSCCLQWNGRSFSVWFHGLEAPLPHPFSPTVGVCLEYADRALAFYAVRDGKMSLLRRLKASRPRRGGIPASPIDPFQSRLDSHFAGLFTHRLKPAFFLESVDAHLQIGPLKKSCISVLKRR [TRIM47]	0.0943	47.8	46.7	-0.052	0.521	1.84
